Experimental data published in patent US20200002439A1 (GENSUN BIOPHARMA, published 2020).

B1: aflibercept peptide (positive control) (other)
chain: SDTGRPFVEMYSEIPEIIHMTEGRELVIPCRVTSPNITVTLKKFPLDTLIPDGKRIIWDSRKGFIISNATYKEIGLLTCEATVNGHLYKTNYLTHRQTNTIIDVVLSPSHGIELSVGEKLVLNCTARTELNVGIDFNWEYPSSKHQHKKLVNRDLKTQSGSEMKKFLSTLTIDGVTRSDQGLYTCAASSGLMTKKNSTFVRVHEK
B2: TS-ZPB-3(2P17) (other)
heavy: QVQLVQSGAEVKKPGASVKVSCKASGYTFTSYYIHWVRQAPGQGLEWMGWIFPGSGNSKYNENFKGRVTLTADTSTSTVYMELSSLRSEDTAVYYCASETYDYGDYWGQGTLVTVSSASTKGPSVFPLAPCSRSTSESTAALGCLVKDYFPEPVTVSWNSGALTSGVHTFPAVLQSSGLYSLSSVVTVPSSSLGTKTYTCNVDHKPSNTKVDKRVESKYGPPCPPCPAPEFLGGPSVFLFPPKPKDTLMISRTPEVTCVVVDVSQEDPEVQFNWYVDGVEVHNAKTKPREEQFNSTYRVVSVLTVLHQDWLNGKEYKCKVSNKGLPSSIEKTISKAKGQPREPQVYTLPPSQEEMIPPHVQKSVNNDMIVTDNNGAVKFPQLCKFCDVRFSTCDNQKSCMSNCSITSICEKPQEVCVAVWRKNDENITLETVCHDPKLPYHDFILEDAASPKCIMKEKKKPGETFFMCSCSSDECNDNIIFSEEYNTSNPDTKNQVSLTCLVKGFYPSDIAVEWESNGQPENNYKTTPPVLDSDGSFFLYSRLTVDKSRWQEGNVFSCSVMHEALHNHYTQKSLSLSLGKGGGGSGGGGSGGGGSSDTGRPFVEMYSEIPEIIHMTEGRELVIPCRVTSPNITVTLKKFPLDTLIPDGKRIIWDSRKGFIISNATYKEIGLLTCEATVNGHLYKTNYLTHRQTNTIIDVVLSPSHGIELSVGEKLVLNCTARTELNVGIDFNWEYPSSKHQHKKLVNRDLKTQSGSEMKKFLSTLTIDGVTRSDQGLYTCAASSGLMTKKNSTFVRVHEK
light: DIQMTQSPSFLSASVGDRVTITCKASQNVGTNVAWYQQKPGKAPKALIYSASYRYSGVPSRFSGSGSGTEFTLTISSLQPEDFATYYCQQYYSYPYTFGQGTKLEIKRTVAAPSVFIFPPSDEQLKSGTASVVCLLNNFYPREAKVQWKVDNALQSGNSQESVTEQDSKDSTYSLSSTLTLSKADYEKHKVYACEVTHQGLSSPVTKSFNRGEC

Legend:
[1] = biological target: T1, recombinant human VEGF 165 (human, UniProt P15692-4 27-191); assay: blocking ELISA: VEGF 165 coated on the plate, binding of recombinant human VEGFR-2 is blocked
T1 construct: Bought protein
T1 sequence (P15692 other isoform, or with tags, fused parts or gaps limits assumed): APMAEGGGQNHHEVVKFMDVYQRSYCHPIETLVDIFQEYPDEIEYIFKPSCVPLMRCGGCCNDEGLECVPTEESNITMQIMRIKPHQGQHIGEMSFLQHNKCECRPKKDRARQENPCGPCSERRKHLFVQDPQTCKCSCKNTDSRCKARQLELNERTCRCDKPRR
Protocol: (§1) In brief, 96-well assay plates were coated with 0.5 ug/ml of recombinant human VEGF 165 (R&D) in carbonate-bicarbonate buffer (pH 9.6) at 4° C. overnight followed by blocking with 1% BSA/PBS for 1 hour at room temperature. Serially diluted antibodies were then added to the plate and incubated for 30 minutes at room temperature. […] Followed by washing with Wash Buffer, goat anti-mouse IgG-HRP were added to the plate and incubated for 1 hour at room temperature. […] IC50 values were determined as the mid-point in the activity curve.

[2] = biological target: T1, recombinant human VEGF 165; assay: as above; remark: listed apart in the source
Protocol: as §1

[3] = biological target: T2, human PD-1 on transfected CHO-K1 cells (human, UniProt Q15116 25-288); assay: cell-based blocking assay, flow cytometry: binding of FITC labeled human PD-L1-Fc to human PD-1 transfected CHO-K1 cells is blocked
T2 construct: also called Human PD-1 transfected CHO-K1 cells
T2 sequence (Q15116 25-288 limits assumed): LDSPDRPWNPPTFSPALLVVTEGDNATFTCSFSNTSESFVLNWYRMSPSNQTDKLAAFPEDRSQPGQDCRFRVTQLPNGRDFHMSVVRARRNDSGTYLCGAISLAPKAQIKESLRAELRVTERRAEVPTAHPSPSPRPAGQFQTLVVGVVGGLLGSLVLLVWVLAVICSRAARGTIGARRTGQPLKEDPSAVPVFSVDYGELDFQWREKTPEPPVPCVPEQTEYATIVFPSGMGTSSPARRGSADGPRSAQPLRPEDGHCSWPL
Protocol: Incubate for 15 mins before analysis with the iQue intellicyt system.

[4] = biological target: T1, recombinant human VEGF 165; assay: blocking ELISA: VEGF-165 coated on the plate, binding of recombinant human VEGFR-2-hu IgG1-His Tag is blocked
Protocol: Briefly, 0.5 ug/ml of recombinant human VEGF-165 (R&D #293-VE-050/CF) in carbonate-bicarbonate buffer was coated to the wells in a 96-well assay plate and incubated overnight at 4° C. The wells were then washed 3 times with 0.05% Tween 20 in PBS (wash buffer), blocked with 1% BSA in PBS for 1 hour at room temperature, and washed 3 times with wash buffer. 50 μl 5-fold serially diluted antibodies were then added to wells in the plate and incubated for 30 minutes at room temperature. […] 100 μl anti-His tag HRP (1:10,000) was then added and the plates were incubated for 40 mins at room temperature and washed 3 times with wash buffer.

human TGFβ1 = human TGFβ1 (human, UniProt P01137 279-390); assay: cell-based or functional assay
Chain of human TGFβ1 (P01137 279-390 limits assumed): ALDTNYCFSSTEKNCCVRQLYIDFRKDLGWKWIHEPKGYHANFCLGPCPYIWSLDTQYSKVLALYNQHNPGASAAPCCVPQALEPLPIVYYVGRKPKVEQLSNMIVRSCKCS

| Binder | IC50 [1] [nM] | IC50 [2] [nM] | IC50 [3] [nM] | IC50 [4] [nM] | IC50; luciferase signal of TGFβ/SMAD SBE Reporter-HEK293 cells stimulated with human TGFβ1 (human TGFβ1) [nM] |
| --- | --- | --- | --- | --- | --- |
| B1 | 0.2 | 0.29 | – | – | – |
| B2 | – | – | 2.39 | 7.71 | 2.95 |
